From patent US20240190943A1 (HANGZHOU EXEGENESIS BIO, published 2024)

T1: angiopoietin 2 (UniProt O15123 19-496, limits assumed)
T1 construct: also called Ang2; ANGPT2
T1 sequence (looked up): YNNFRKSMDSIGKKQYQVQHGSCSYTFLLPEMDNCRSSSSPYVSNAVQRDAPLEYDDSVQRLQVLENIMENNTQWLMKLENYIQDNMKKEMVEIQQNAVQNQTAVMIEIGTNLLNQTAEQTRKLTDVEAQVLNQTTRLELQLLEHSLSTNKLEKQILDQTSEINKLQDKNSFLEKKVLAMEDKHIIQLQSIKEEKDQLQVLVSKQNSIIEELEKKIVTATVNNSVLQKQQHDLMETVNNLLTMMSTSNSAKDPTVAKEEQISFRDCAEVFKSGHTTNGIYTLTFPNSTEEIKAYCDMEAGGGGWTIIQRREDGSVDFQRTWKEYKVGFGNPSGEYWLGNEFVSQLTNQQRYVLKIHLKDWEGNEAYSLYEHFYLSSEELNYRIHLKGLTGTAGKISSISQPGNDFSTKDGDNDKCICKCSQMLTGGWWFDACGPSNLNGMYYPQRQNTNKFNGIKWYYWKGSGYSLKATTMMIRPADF


What was measured:
angiopoietin 2 = target: T1, angiopoietin 2; assay: Ang2 ELISA, shown relative to Exg102-04; middle bar of each group
VEGF-A = target: T2, VEGF-A (UniProt P15692-4 27-191, limits assumed); assay: VEGF-A binding ELISA (OD450), titration in pM of the product of plasmid-transfected cells
T2 construct: also called rVEGF; vascular endothelial growth factor
T2 sequence (P15692 other isoform, or with tags, fused parts or gaps limits assumed): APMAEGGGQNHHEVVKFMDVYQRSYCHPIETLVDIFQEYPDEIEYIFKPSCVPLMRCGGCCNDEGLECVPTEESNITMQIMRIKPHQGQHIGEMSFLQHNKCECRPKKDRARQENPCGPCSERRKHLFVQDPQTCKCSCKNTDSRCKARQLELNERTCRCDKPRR

binding result (angiopoietin 2)	EC50 (read off the curve) (VEGF-A) [nM]	Binder
no binding	~0.3	control polypeptide without an Ang BD (Fc fusion, Signal peptide left out; also called EXG102-02; EXG102-03-1; not shown: Fc fragment of human IgG) SDTGRPFVEMYSEIPEIIHMTEGRELVIPCRVTSPNITVTLKKFPLDTLIPDGKRIIWDSRKGFIISNATYKEIGLLTCEATVNGHLYKTNYLTHRQTNTIIDVVLSPSHGIELSVGEKLVLNCTARTELNVGIDFNWEYPSSKHQHKKLVNRDLKTQSGSEMKKFLSTLTIDGVTRSDQGLYTCAASSGLMTKKNSTFVRVHE
no binding		Exg102-13 (other, Carries only the N-terminal 21 amino acids of the Fc (Fc-Hinger) and no full Fc; also called Exemplary polypeptide 4) fusion polypeptide (Flt1 signal - VEGFR1 D2 - VEGFR2 D3 - Fc-Hinge - Ang BD): SDTGRPFVEMYSEIPEIIHMTEGRELVIPCRVTSPNITVTLKKFPLDTLIPDGKRIIWDSRKGFIISNATYKEIGLLTCEATVNGHLYKTNYLTHRQTNTIIDVVLSPSHGIELSVGEKLVLNCTARTELNVGIDFNWEYPSSKHQHKKLVNRDLKTQSGSEMKKFLSTLTIDGVTRSDQGLYTCAASSGLMTKKNSTFVRVHEKDKTHTCPPCPAPELLGGPSVGGGGGSGGGGGAQQEECEWDPWTCEHMGSGSATGGSGSTASSGSGSATHQEECEWDPWTCEHMLE
